Reference: US20240261333A1, “NOVEL TARGETS FOR ENHANCING ANTI-TUMOR IMMUNITY” (THE BROAD INSTITUTE, INC., priority 2021, published 2024)

T1: B3GNT2 (Homo sapiens, UniProt Q9NY97)
T1 construct: The respective ORFs of candidate genes [CD274 (NM_014143), MCL1 (NM_021960), JUNB (NM_002229), and B3GNT2 (NM_006577)] were synthesized; expressed in transfected cells; host or cells: A375 melanoma cells (lentiviral ORF overexpression)
T1 sequence (Q9NY97 1-397): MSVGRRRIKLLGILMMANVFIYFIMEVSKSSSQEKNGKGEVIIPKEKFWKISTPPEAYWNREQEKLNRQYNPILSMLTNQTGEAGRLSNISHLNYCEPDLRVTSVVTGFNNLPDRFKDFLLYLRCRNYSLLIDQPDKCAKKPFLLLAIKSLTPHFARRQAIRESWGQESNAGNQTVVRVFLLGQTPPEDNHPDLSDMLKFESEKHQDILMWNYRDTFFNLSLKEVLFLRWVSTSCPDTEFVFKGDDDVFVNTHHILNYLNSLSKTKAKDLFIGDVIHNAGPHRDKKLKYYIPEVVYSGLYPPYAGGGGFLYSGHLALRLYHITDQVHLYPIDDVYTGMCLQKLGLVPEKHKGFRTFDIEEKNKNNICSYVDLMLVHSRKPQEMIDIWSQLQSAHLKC


Target: T1, B3GNT2
Assay: Co-IP of FLAG-tagged B3GNT2 followed by mass spectrometry
Type: cell-based
Set-up: C-term IgG / C-term flag: unit not given here
Details: Co-IP followed by mass spectrometry of B3GNT2; for C-term flag / C-term IgG: C-term tag; for C-term flag / N-term FLAG: FLAG pull-down; for C-term IgG / N-term IgG: IgG pull-down; for N-term FLAG / N-term IgG: N-term tag
In short: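 Co-purifying proteins were identified by fractionated nano-LC–MS/MS on an Orbitrap Elite, run data-dependent. Beforehand, lysates in 1% Triton X-100/HEPES buffer were incubated overnight at 4° C with anti-FLAG or […] and pulled down on Protein A/G magnetic beads for 4 h. Duplicate biological replicates.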

Molecule	C-term flag	C-term IgG	N-term FLAG	N-term IgG
UBAP2L (protein) MMTSVGTNRARGNWEQPQNQNQTQHKQRPQATAEQIRLAQMISDHNDADFEEKVKQLIDITGKNQDECVIALHDCNGDVNRAINVLLEGNPDTHSWEMVGKKKGVSGQKDGGQTESNEEGKENRDRDRDYSRRRGGPPRRGRGASRGREFRGQENGLDGTKSGGPSGRGTERGRRGRGRGRGGSGRRGGRFSAQGMGTFNPADYAEPANTDDNYGNSSGNTWNNTGHFEPDDGTSAWRTATEEWGTEDWNEDLSETKIFTASNVSSVPLPAENVTITAGQRIDLAVLLGKTPSTMENDSSNLDPSQAPSLAQPLVFSNSKQTAISQPASGNTFSHHSMVSMLGKGFGDVGEAKGGSTTGSQFLEQFKTAQALAQLAAQHSQSGSTTTSSWDMGSTTQSPSLVQYDLKNPSDSAVHSPFTKRQAFTPSSTMMEVFLQEKSPAVATSTAAPPPPSSPLPSKSTSAPQMSPGSSDNQSSSPQPAQQKLKQQKKKASLTSKIPALAVEMPGSADISGLNLQFGALQFGSEPVLSDYESTPTTSASSSQAPSSLYTSTASESSSTISSNQSQESGYQSGPIQSTTYTSQNNAQGPLYEQRSTQTRRYPSSISSSPQKDLTQAKNGFSSVQATQLQTTQSVEGATGSAVKSDSPSTSSIPPLNETVSAASLLTTTNQHSSSLGGLSHSEEIPNTTTTQHSSTLSTQQNTLSSSTSSGRTSTSTLLHTSVESEANLHSSSSTFSTTSSTVSAPPPVVSVSSSLNSGSSLGLSLGSNSTVTASTRSSVATTSGKAPPNLPPGVPPLLPNPYIMAPGLLHAYPPQVYGYDDLQMLQTRFPLDYYSIPFPTPTTPLTGRDGSLASNPYSGDLTKFGRGDASSPAPATTLAQPQQNQTQTHHTTQQTFLNPALPPGYSYTSLPYYTGVPGLPSTFQYGPAVFPVAPTSSKQHGVNVSVNASATPFQQPSGYGSHGYNTGVSVTSSNTGVPDISGSVYSKTQQSFEKQGFHSGTPAASFNLPSALGSGGPINPATAAAYPPAPFMHILTPHQQPHSQILHHHLQQDGQTGSGQRSQTSSIPQKPQTNKSAYNSYSWGAN	19	15	20	20
SAMM50 (protein) MGTVHARSLEPLPSSGPDFGGLGEEAEFVEVEPEAKQEILENKDVVVQHVHFDGLGRTKDDIIICEIGDVFKAKNLIEVMRKSHEAREKLLRLGIFRQVDVLIDTCQGDDALPNGLDVTFEVTELRRLTGSYNTMVGNNEGSMVLGLKLPNLLGRAEKVTFQFSYGTKETSYGLSFFKPRPGNFERNFSVNLYKVTGQFPWSSLRETDRGMSAEYSFPIWKTSHTVKWEGVWRELGCLSRTASFAVRKESGHSLKSSLSHAMVIDSRNSSILPRRGALLKVNQELAGYTGGDVSFIKEDFELQLNKQLIFDSVFSASFWGGMLVPIGDKPSSIADRFYLGGPTSIRGFSMHSIGPQSEGDYLGGEAYWAGGLHLYTPLPFRPGQGGFGELFRTHFFLNAGNLCNLNYGEGPKAHIRKLAECIRWSYGAGIVLRLGNIARLELNYCVPMGVQTGDRICDGVQFGAGIRFL	0	0	3	0
PUM1 (protein) SVACVLKRKAVLWQDSFSPHLKHHPQEPANPNMPVVLTSGTGSQAQPQPAANQALAAGTHSSPVPGSIGVAGRSQDDAMVDYFFQRQHGEQLGGGGSGGGGYNNSKHRWPTGDNIHAEHQVRSMDELNHDFQALALEGRAMGEQLLPGKKFWETDESSKDGPKGIFLGDQWRDSAWGTSDHSVSQPIMVQRRPGQSFHVNSEVNSVLSPRSESGGLGVSMVEYVLSSSPGDSCLRKGGFGPRDADSDENDKGEKKNKGTFDGDKLGDLKEEGDVMDKTNGLPVQNGIDADVKDFSRTPGNCQNSANEVDLLGPNQNGSEGLAQLTSTNGAKPVEDFSNMESQSVPLDPMEHVGMEPLQFDYSGTQVPVDSAAATVGLFDYNSQQQLFQRPNALAVQQLTAAQQQQYALAAAHQPHIGLAPAAFVPNPYIISAAPPGTDPYTAGLAAAATLGPAVVPHQYYGVTPWGVYPASLFQQQAAAAAAATNSANQQTTPQAQQGQQQVLRGGASQRPLTPNQNQQGQQTDPLVAAAAVNSALAFGQGLAAGMPGYPVLAPAAYYDQTGALVVNAGARNGLGAPVRLVAPAPVIISSSAAQAAVAAAAASANGAAGGLAGTTNGPFRPLGTQQPQPQPQQQPNNNLASSSFYGNNSLNSNSQSSSLFSQGSAQPANTSLGFGSSSSLGATLGSALGGFGTAVANSNTGSGSRRDSLTGSSDLYKRTSSSLTPIGHSFYNGLSFSSSPGPVGMPLPSQGPGHSQTPPPSLSSHGSSSSLNLGGLTNGSGRYISAAPGAEAKYRSASSASSLFSPSSTLFSSSRLRYGMSDVMPSGRSRLLEDFRNNRYPNLQLREIAGHIMEFSQDQHGSRFIQLKLERATPAERQLVFNEILQAAYQLMVDVFGNYVIQKFFEFGSLEQKLALAERIRGHVLSLALQMYGCRVIQKALEFIPSDQQVINEMVRELDGHVLKCVKDQNGNHVVQKCIECVQPQSLQFIIDAFKGQVFALSTHPYGCRVIQRILEHCLPDQTLPILEELHQHTEQLVQDQYGNYVIQHVLEHGRPEDKSKIVAEIRGNVLVLSQHKFASNVVEKCVTHASRTERAVLIDEVCTMNDGPHSALYTMMKDQYANYVVQKMIDVAEPGQRKIVMHKIRPHIATLRKYTYGKHILAKLEKYYMKNGVDLGPICGPPNGII	3	0	0	0
EIF5B (protein) MGKKQKNKSEDSTKDDIDLDALAAEIEGAGAAKEQEPQKSKGKKKKEKKKQDFDEDDILKELEELSLEAQGIKADRETVAVKPTENNEEEFTSKDKKKKGQKGKKQSFDDNDSEELEDKDSKSKKTAKPKVEMYSGSDDDDDFNKLPKKAKGKAQKSNKKWDGSEEDEDNSKKIKERSRINSSGESGDESDEFLQSRKGQKKNQKNKPGPNIESGNEDDDASFKIKTVAQKKAEKKERERKKRDEEKAKLRKLKEKEELETGKKDQSKQKESQRKFEEETVKSKVTVDTGVIPASEEKAETPTAAEDDNEGDKKKKDKKKKKGEKEEKEKEKKKGPSKATVKAMQEALAKLKEEEERQKREEEERIKRLEELEAKRKEEERLEQEKRERKKQKEKERKERLKKEGKLLTKSQREARARAEATLKLLQAQGVEVPSKDSLPKKRPIYEDKKRKKIPQQLESKEVSESMELCAAVEVMEQGVPEKEETPPPVEPEEEEDTEDAGLDDWEAMASDEETEKVEGNKVHIEVKENPEEEEEEEEEEEEDEESEEEEEEEGESEGSEGDEEDEKVSDEKDSGKTLDKKPSKEMSSDSEYDSDDDRTKEERAYDKAKRRIEKRRLEHSKNVNTEKLRAPIICVLGHVDTGKTKILDKLRHTHVQDGEAGGITQQIGATNVPLEAINEQTKMIKNFDRENVRIPGMLIIDTPGHESFSNLRNRGSSLCDIAILVVDIMHGLEPQTIESINLLKSKKCPFIVALNKIDRLYDWKKSPDSDVAATLKKQKKNTKDEFEERAKAIIVEFAQQGLNAALFYENKDPRTFVSLVPTSAHTGDGMGSLIYLLVELTQTMLSKRLAHCEELRAQVMEVKALPGMGTTIDVILINGRLKEGDTIIVPGVEGPIVTQIRGLLLPPPMKELRVKNQYEKHKEVEAAQGVKILGKDLEKTLAGLPLLVAYKEDEIPVLKDELIHELKQTLNAIKLEEKGVYVQASTLGSLEALLEFLKTSEVPYAGINIGPVHKKDVMKASVMLEHDPQYAVILAFDVRIERDAQEMADSLGVRIFSAEIIYHLFDAFTKYRQDYKKQKQEEFKHIAVFPCKIKILPQYIFNSRDPIVMGVTVEAGQVKQGTPMCVPSKNFVDIGIVTSIEINHKQVDVAKKGQEVCVKIEPIPGESPKMFGRHFEATDILVSKISRQSIDALKDWFRDEMQKSDWQLIVELKKVFEII	3	0	0	0
NUFIP2 (protein) MEEKPGQPQPQHHHSHHHPHHHPQQQQQQPHHHHHYYFYNHSHNHHHHHHHQQPHQYLQHGAEGSPKAQPKPLKHEQKHTLQQHQETPKKKTGYGELNGNAGEREISLKNLSSDEATNPISRVLNGNQQVVDTSLKQTVKANTFGKAGIKTKNFIQKNSMDKKNGKSYENKSGENQSVDKSDTIPIPNGVVTNNSGYITNGYMGKGADNDGSGSESGYTTPKKRKARRNSAKGCENLNIVQDKIMQQETSVPTLKQGLETFKPDYSEQKGNRVDGSKPIWKYETGPGGTSRGKPAVGDMLRKSSDSKPGVSSKKFDDRPKGKHASAVASKEDSWTLFKPPPVFPVDNSSAKIVPKISYASKVKENLNKTIQNSSVSPTSSSSSSSSTGETQTQSSSRLSQVPMSALKSVTSANFSNGPVLAGTDGNVYPPGGQPLLTTAANTLTPISSGTDSVLQDMSLTSAAVEQIKTSLFIYPSNMQTMLLSTAQVDLPSQTDQQNLGDIFQNQWGLSFINEPSAGPETVTGKSSEHKVMEVTFQGEYPATLVSQGAEIIPSGTEHPVFPKAYELEKRTSPQVLGSILKSGTTSESGALSLEPSHIGDLQKADTSSQGALVFLSKDYEIESQNPLASPTNTLLGSAKEQRYQRGLERNDSWGSFDLRAAIVYHTKEMESIWNLQKQDPKRIITYNEAMDSPDQ	5	4	3	3
